The subject of data set [1] is Lambda exonuclease. In words: cleavage_in_vitro. Particulars: rate at 30,000 psi, 20 C; 89 mM glycine-KOH pH 9.4, 3.3 mM MgCl2 assay buffer; reversible pressure inhibition.
Data set [2] deals with T4 DNA polymerase (3'-5' exonuclease) (Bacteriophage T4?). In words: cleavage_in_vitro. Particulars: atmospheric pressure, room temperature.

Our source for the activity and activity (bp digested in 20 min) values is patent US6036923.

In data set [1], Lambda DNA HindIII digest fragments had an activity of 0.1 bases/s.
In data set [2], DNA size markers (lambda DNA) showed an activity (bp digested in 20 min) of 100.
